According to patent EP1019524B1:

Target: HeLa cell PP1α (cellular PP1α in S10 fractions of HeLa cells) (human) (UniProt P62136)
Assay: cell-based or functional assay

Chain of HeLa cell PP1α (cellular PP1α in S10 fractions of HeLa cells) (human) (P62136 2-330): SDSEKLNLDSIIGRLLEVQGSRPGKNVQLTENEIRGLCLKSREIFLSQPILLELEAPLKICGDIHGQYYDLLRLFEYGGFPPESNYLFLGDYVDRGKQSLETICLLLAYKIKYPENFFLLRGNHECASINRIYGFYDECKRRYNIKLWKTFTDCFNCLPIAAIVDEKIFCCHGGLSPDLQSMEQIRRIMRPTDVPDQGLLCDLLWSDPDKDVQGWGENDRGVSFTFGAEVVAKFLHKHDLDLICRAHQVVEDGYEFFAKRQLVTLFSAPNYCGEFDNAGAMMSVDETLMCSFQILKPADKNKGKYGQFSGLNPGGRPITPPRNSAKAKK

“γ134.5 protein of HSV-1(F), from lysates of HSV-1(F) infected cells (from UniProt P36313 1-248)” gave a 32P-phosphorylase phosphatase activity of HSV-1(F)-infected cells against mock-infected cells (fold of mock-infected cells) of 0.5 and an eIF-2(α32P) phosphatase activity of S10 fractions of wild type infected HeLa cells against mock-infected cells of 3000 fold.
In the case of protein phosphatase Inhibitor 2, the 50% reduction in the rate of dephosphorylation of eIF-2(α32P) by the S10 fraction from R8300 virus-infected cells is reported as 120 µg/mL and the 50% reduction in the rate of dephosphorylation of eIF-2(α32P) by the S10 fraction from wild-type virus-infected cells is reported as 90 µg/mL.
In the case of “γ134.5-MyD116 chimeric protein expressed by recombinant virus R8300 (from UniProt P36313 1-175; P17564 540-657)”, the eIF-2(α32P) phosphatase activity of S10 fractions of R8300 infected HeLa cells against mock-infected cells is reported as 50 fold.
